Data on two molecules can be found in publication PMC6016246, “Cytokinin Signaling in Mycobacterium tuberculosis” (mBio, 2018).

The target of series [1] is T1, Rv0078 R48M (Mycobacterium tuberculosis, UniProt O53623 1-201, R48M).
T1 sequence: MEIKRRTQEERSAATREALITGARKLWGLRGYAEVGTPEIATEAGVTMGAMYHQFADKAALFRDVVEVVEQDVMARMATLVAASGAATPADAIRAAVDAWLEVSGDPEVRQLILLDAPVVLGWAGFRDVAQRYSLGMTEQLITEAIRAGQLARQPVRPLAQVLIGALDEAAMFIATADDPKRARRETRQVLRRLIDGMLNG
Put plainly: EMSA; […], room temperature 30 min; […], buffer not stated. To be noted: protein: recombinant; chain copies: 2; label: 5'-IRDye700 on S21. Background: A gel shift assay detects complexes by their altered migration in electrophoresis.

Series [2] deals with T2, Rv0078 (Mycobacterium tuberculosis, UniProt O53623 1-201).
T2 sequence: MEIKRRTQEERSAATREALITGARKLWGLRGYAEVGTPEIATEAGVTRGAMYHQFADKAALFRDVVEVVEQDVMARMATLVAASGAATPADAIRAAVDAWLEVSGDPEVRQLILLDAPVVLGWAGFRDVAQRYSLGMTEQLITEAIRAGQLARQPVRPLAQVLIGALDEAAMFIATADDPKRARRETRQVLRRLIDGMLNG
The series is described as above. To be noted: protein: recombinant; tags: C-terminal His6; chain copies: 4; label: IRDye700.

B1: +19/-14 (WT) (dsDNA)
DNA 1: GTACATTTACAAGCAGACTGCCGGTAACTTACCCCAGACCAGGGCAC
DNA 2: GTGCCCTGGTCTGG
DNA 3: GGTAAGTTACCGGCAGTCTGCTTGTAAATGTAC
B1: the binding result in series [1] is given as “no binding”.

B2: probe S1 (central dimer G-to-A) (dsDNA)
DNA 1: GTACATTTACAAGTAGACTACCGGTAACTTACC
DNA 2: GGTAAGTTACCGGTAGTCTACTTGTAAATGTAC
On to B2, for which the binding result in series [2] was “no binding”.
